The labels stand for the following.
B1: Flag-BNIP3 wild-type (BCL2/adenovirus e1B 19 kDa protein interacting protein 3) [rat] / GFP-LC3 (microtubule-associated protein 1 light chain 3; plasmid pEGFP-C1-LC3B) [not stated] (parent)
chain 1: MSQSGEENLQGSWVELHFSNGNGSSVPASVSIYNGDMEKILLDAQHESGRSSSKSSHCDSPPRSQTPQDTNRAEIDTHSFGEKNSTLSEEDYIERRREVESILKKNSDWIWDWSSRPENVPPKEFLFKHPKRTATLSMRNTSVMKKGGIFSADFLKVFLPSLLLSHLLAIGLGIYIGRRLTTSTSTF
chain 2: not shown

The variants in this assay derive from B1. Briefly: co-IP (anti-Flag immunoprecipitation, western blot, quantified). The settings on record: with GFP-LC3 (microtubule-associated protein 1 light chain 3; plasmid pEGFP-C1-LC3B); HeLa cells, 48 h after transfection; n = 3; means ± SEM; read off a plot. For orientation: Immunoblotting shows a protein as a band on a membrane.
chain 1 S60A: the ratio to parent (Folds of Control) came to 0.33. As for chain 1 S60D, the ratio to parent (Folds of Control) worked out at 0.85. As to chain 1 S60E, the ratio to parent (Folds of Control) was 0.85. With chain 1 S60A T66A the figure was 0.13.

For the origin of these results see paper PMC9672126.
